Assay results published in patent US20240116985A1 (published 2024).
Starred links: 1 amine or outer side, 2 acyl side, 3 side chain; linkers in the order of their positions; H or OH if unused. Positions of bridges follow the written chain, without caps; N, C: chain ends. Non-standard residues stand in square brackets, D forms with d. Primed or numbered codes have the meaning given here. B5(26) = 2-amino-2-(pent-4-en-1-yl)hept-6-enoic acid (bis-pentenylglycine), stitching residue carrying two staples, C=CCCCC(CCCC=C)(N[*:1])C(=O)[*:2]; PyrS2″ = (S)-3-amino-1-((pent-4-en-1-yloxy)carbonyl)pyrrolidine-3-carboxylic acid (stapling residue), C=CCCCOC(=O)N1CC[C@@](N[*:1])(C(=O)[*:2])C1; B5(24) = 2-amino-2-(pent-4-en-1-yl)hept-6-enoic acid, 2,2-bis(4-pentenyl)glycine (stitching residue), C=CCCCC(CCCC=C)(N[*:1])C(=O)[*:2]; B5(21) = 2-amino-2-(pent-4-en-1-yl)hept-6-enoic acid, bis(4-pentenyl)glycine (stitching residue), C=CCCCC(CCCC=C)(N[*:1])C(=O)[*:2]; B5(6) = 2-amino-2-(pent-4-en-1-yl)hept-6-enoic acid (bis(4-pentenyl)glycine), stitching residue, C=CCCCC(CCCC=C)(N[*:1])C(=O)[*:2]; S(OMe) = O-methyl-L-serine, COC[C@H](N[*:1])C(=O)[*:2]; Phe(2-NO2) = N[C@@H](Cc1ccccc1[N+](=O)[O-])C(=O)O; Phe(2-Br) = N[C@@H](Cc1ccccc1Br)C(=O)O; Phe(2-Cl) = N[C@@H](Cc1ccccc1Cl)C(=O)O; Phe(2-OMe) = COc1ccccc1C[C@H](N)C(=O)O; Phe(3-F) = N[C@@H](Cc1cccc(F)c1)C(=O)O; Phe(4-F) = N[C@@H](Cc1ccc(F)cc1)C(=O)O; His(τ-Me) = Cn1cnc(C[C@H](N)C(=O)O)c1; Phe(2-F) = N[C@@H](Cc1ccccc1F)C(=O)O; Bta = N[C@@H](Cc1csc2ccccc12)C(=O)O; His(π-Me) = Cn1cncc1C[C@H](N)C(=O)O; αAllylPro = C=CC[C@@]1(C(=O)O)CCCN1; 2Thi = N[C@@H](Cc1cccs1)C(=O)O; S8 = C=CCCCCCC[C@](C)(N)C(=O)O

T1: full-length beta-Catenin (Uniprot ID P35222) (Homo sapiens (Human), UniProt P35222 1-781)
T1 construct: The assay protocol says full-length beta-Catenin (Uniprot ID P35222); tags are not described; also called bCat; B-Catenin
T1 sequence: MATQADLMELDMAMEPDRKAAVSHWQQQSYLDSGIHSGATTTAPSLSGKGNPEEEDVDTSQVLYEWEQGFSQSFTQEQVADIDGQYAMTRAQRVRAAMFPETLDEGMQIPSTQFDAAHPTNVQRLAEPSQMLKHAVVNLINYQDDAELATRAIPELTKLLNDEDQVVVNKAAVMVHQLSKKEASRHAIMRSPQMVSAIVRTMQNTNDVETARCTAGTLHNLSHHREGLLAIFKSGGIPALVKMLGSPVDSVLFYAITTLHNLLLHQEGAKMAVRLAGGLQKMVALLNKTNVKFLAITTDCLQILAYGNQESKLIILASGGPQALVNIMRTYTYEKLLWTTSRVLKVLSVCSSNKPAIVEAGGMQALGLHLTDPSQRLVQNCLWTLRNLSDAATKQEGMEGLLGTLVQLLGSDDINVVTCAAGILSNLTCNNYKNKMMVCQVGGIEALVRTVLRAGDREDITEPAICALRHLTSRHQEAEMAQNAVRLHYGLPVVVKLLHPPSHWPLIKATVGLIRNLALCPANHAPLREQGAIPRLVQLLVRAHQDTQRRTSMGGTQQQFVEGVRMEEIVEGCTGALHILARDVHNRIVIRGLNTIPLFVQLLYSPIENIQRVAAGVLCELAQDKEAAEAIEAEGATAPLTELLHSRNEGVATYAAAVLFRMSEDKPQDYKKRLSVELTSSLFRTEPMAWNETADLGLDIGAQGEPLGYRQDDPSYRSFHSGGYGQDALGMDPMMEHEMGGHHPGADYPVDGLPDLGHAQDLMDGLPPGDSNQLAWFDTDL

B1: I-450 (peptide)
peptide: Ac-[αAllylPro]DA[B5(21)]DEAA[2Thi]Q[S8][Phe(3-F)]WQ-NH2
modifications: staple 1-4, 4-11
notes: Stapled (stitched) peptide with non-natural residues
B2: I-469 (peptide)
peptide: Ac-[αAllylPro]DI[B5(6)]DDAAFN[S8]F[Bta]H-NH2
modifications: staple 1-4, 4-11; also: staple isomer composition: earlier-eluting HPLC peak
notes: Staple isomer composition: earlier-eluting HPLC peak
B3: I-467 (peptide)
peptide: Ac-[αAllylPro]DI[B5(6)]DDAAFN[S8]F[Bta]Q-NH2
modifications: staple 1-4, 4-11; also: staple isomer composition: earlier-eluting HPLC peak
notes: as for B2
B4: I-468 (peptide)
peptide: Ac-[αAllylPro]DI[B5(6)]DDAAFN[S8]F[Bta]Q-NH2
modifications: staple 1-4, 4-11; also: staple isomer composition: later-eluting HPLC peak
notes: Staple isomer composition: later-eluting HPLC peak
B5: I-434 (peptide)
peptide: Ac-[αAllylPro]DA[B5(24)]DEAAFN[S8][Phe(2-F)][Bta]Q-NH2
modifications: staple 1-4, 4-11
notes: as for B1
B6: I-433 (peptide)
peptide: Ac-[αAllylPro]DA[B5(24)]DEAAF[S(OMe)][S8]F[Bta]Q-NH2
modifications: staple 1-4, 4-11
notes: as for B1
B7: I-438 (peptide)
peptide: Ac-[αAllylPro]DA[B5(26)]DEAAFN[S8][His(π-Me)][Bta]Q-NH2
modifications: staple 1-4, 4-11
notes: as for B1
B8: I-440 (peptide)
peptide: XDAXDEAAFNXHXQ
modifications: not fully specified; Ac-PL3-Asp-Ala-B5-Asp-Glu-Ala-Ala-Phe-Asn-S8-1meH-BztA-Gln-NH2; N-terminal acetyl, C-terminal amide; stapled PL3(1)-B5(4) and B5(4)-S8(11) by olefin metathesis
notes: as for B4
B9: I-439 (peptide)
peptide: Ac-[αAllylPro]DA[B5(21)]DEAAFN[S8][His(τ-Me)][Bta]Q-NH2
modifications: staple 1-4, 4-11
notes: as for B2
B10: I-436 (peptide)
peptide: Ac-[αAllylPro]DA[B5(24)]DEAAFN[S8][Phe(2-Br)][Bta]Q-NH2
modifications: staple 1-4, 4-11
notes: as for B1
B11: I-454 (peptide)
peptide: Ac-[αAllylPro]DA[B5(21)]DEAA[Phe(3-F)]N[S8]F[Bta]Q-NH2
modifications: staple 1-4, 4-11
notes: as for B1
B12: I-462 (peptide)
peptide: Ac-[αAllylPro]DA[B5(21)]DEAAFN[PyrS2″]F[Bta]Q-NH2
modifications: staple 1-4, 4-11
notes: as for B1
B13: I-453 (peptide)
peptide: Ac-[αAllylPro]DA[B5(21)]DEAA[Phe(2-F)]N[S8]F[Bta]Q-NH2
modifications: staple 1-4, 4-11
notes: as for B1
B14: I-435 (peptide)
peptide: Ac-[αAllylPro]DA[B5(24)]DEAAFN[S8][Phe(2-Cl)][Bta]Q-NH2
modifications: staple 1-4, 4-11
notes: as for B1
B15: I-437 (peptide)
peptide: Ac-[αAllylPro]DA[B5(24)]DEAAFN[S8][Phe(2-OMe)][Bta]Q-NH2
modifications: staple 1-4, 4-11
notes: as for B1
B16: I-441 (peptide)
peptide: Ac-[αAllylPro]DA[B5(21)]DEAAFN[S8][Phe(2-NO2)][Bta]Q-NH2
modifications: staple 1-4, 4-11
notes: as for B1
B17: I-455 (peptide)
peptide: Ac-[αAllylPro]DA[B5(21)]DEAA[Phe(4-F)]N[S8]F[Bta]Q-NH2
modifications: staple 1-4, 4-11
notes: as for B1

Molecular target: T1, full-length beta-Catenin (Uniprot ID …)
Test: fluorescence polarization competition: full-length beta-catenin + 5FAM-TCF4(10-53) probe, peptide titrated
Description: The plate was incubated protected from light for 60 minutes at 20° C. prior to read. Reads were performed on a CLARIOstar plate reader (BMG Labtech) in duplicate, and data were fitted to a 1:1 binding model with hill slope using an in-house script. All provided concentrations are final concentrations.

Row | EC50 [nM] | Binder
1 | 3720 | B1
2 | 27 | B2
3 | 44 | B3
4 | 27 | B4
5 | 67.5 | B5
6 | 136 | B6
7 | 5000 | B7
8 | 5000 | B8
9 | 5000 | B9
10 | 56 | B10
11 | 125 | B11
12 | 28 | B12
13 | 1550 | B13
14 | 70 | B14
15 | 26 | B15
16 | 133 | B16
17 | 83.5 | B17
